Reference: publication PMC9500956, “In Vitro Characterization of the Physical Interactions between the Long Noncoding RNA TERRA and the Telomeric Proteins TRF1 and TRF2”

Key:
Assay in all cases: EMSA; E. coli tRNA; RNA EMSA: 50 mM HEPES pH 8, 1 mM DTT, 100 mM NaCl, 0.01% BSA, 2% glycerol, 50 ng/uL E. coli tRNA, 0.25 nM RNA, 20 min on ice then 10 min 25 C; dsDNA EMSA: same
GST-B (hB) = biological target: T1, GST-B (hB) (human, UniProt Q15554 43-86); settings: protein: recombinant, tags: N-terminal GST, label: 5'-32P
T1 chain: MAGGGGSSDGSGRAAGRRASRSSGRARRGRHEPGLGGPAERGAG

GST-TRF2 = GST-TRF2 (human, UniProt Q15554 43-542); settings: protein: recombinant, tags: N-terminal GST, chain copies: 2, label: 5'-32P
GST-TRF1 = GST-TRF1 (human, UniProt P54274 1-439); settings: protein: recombinant, tags: N-terminal GST, chain copies: 2, label: 5'-32P
GST-hBL = GST-hBL (human, UniProt Q15554 1-86); settings: protein: recombinant; tags: N-terminal GST; label: 5'-32P; G4-forming
GST-A (hA) = biological target: T2, GST-A (hA) (human, UniProt P54274 1-66); settings: protein: recombinant; tags: N-terminal GST; label: 5'-32P; G4-forming
T2 sequence: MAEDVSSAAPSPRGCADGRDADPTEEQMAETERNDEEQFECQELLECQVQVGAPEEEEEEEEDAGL

Row | Binder | binding result (GST-TRF2; G4-forming) | binding result (GST-B (hB); G4-forming) | binding result (GST-TRF1; G4-forming) | binding result (GST-TRF2; not G4-forming) | binding result (GST-B (hB); not G4-forming) | binding result (GST-TRF1; not G4-forming) | also measured
1 | TERRA (UUAGGG)12 (structured_RNA) RNA: UUAGGGUUAGGGUUAGGGUUAGGGUUAGGGUUAGGGUUAGGGUUAGGGUUAGGGUUAGGGUUAGGGUUAGGG | – | – | – | – | – | – | binding result (GST-B (hB)): binds
2 | AUAGGGAUAGGGAUAGGGAUAGGGAUAGGG (structured_RNA) [MUT3 (AUAGGG)5] | binds | binds | binds | – | – | – | –
3 | UUACCGUUACCGUUACCGUUACCGUUACCG (ssRNA) [MUT2 (UUACCG)5] | – | – | – | no binding | no binding | no binding | –
4 | AAAGGGAAAGGGAAAGGGAAAGGGAAAGGG (structured_RNA) [MUT4 (AAAGGG)5] | binds | binds | binds | – | – | – | –
5 | UUAGGGUUAGGGUUAGGGUUAGGGUUAGGG (structured_RNA) [TERRA (UUAGGG)5] | binds | binds | binds | – | – | – | binding result (GST-hBL): binds; binding result (GST-A (hA)): no binding
6 | UUACGGUUACGGUUACGGUUACGGUUACGG (ssRNA) [MUT1 (UUACGG)5] | – | – | – | no binding | no binding | no binding | –
